To fix the notation:
B1: Cdc34 (enzyme, budding yeast, UniProt P14682 1-295, looked up)
chain: MSSRKSTASSLLLRQYRELTDPKKAIPSFHIELEDDSNIFTWNIGVMVLNEDSIYHGGFFKAQMRFPEDFPFSPPQFRFTPAIYHPNVYRDGRLCISILHQSGDPMTDEPDAETWSPVQTVESVLISIVSLLEDPNINSPANVDAAVDYRKNPEQYKQRVKMEVERSKQDIPKGFIMPTSESAYISQSKLDEPESNKDMADNFWYDSDLDDDENGSVILQDDDYDDGNNHIPFEDDDVYNYNDNDDDDERIEFEDDDDDDDDSIDNDSVMDRKQPHKAEDESEDVEDVERVSKKI
notes: Endogenous protein in yeast lysates, detected with anti-Cdc34 antibodies; also called endogenous Cdc34

In experiment [1] the target is T1, Cdc53-Y48W, M49E^MYC6 (Saccharomyces cerevisiae, UniProt Q12018 1-815).
T1 construct: also called mutant Cdc53; pMT1939-1943
T1 sequence: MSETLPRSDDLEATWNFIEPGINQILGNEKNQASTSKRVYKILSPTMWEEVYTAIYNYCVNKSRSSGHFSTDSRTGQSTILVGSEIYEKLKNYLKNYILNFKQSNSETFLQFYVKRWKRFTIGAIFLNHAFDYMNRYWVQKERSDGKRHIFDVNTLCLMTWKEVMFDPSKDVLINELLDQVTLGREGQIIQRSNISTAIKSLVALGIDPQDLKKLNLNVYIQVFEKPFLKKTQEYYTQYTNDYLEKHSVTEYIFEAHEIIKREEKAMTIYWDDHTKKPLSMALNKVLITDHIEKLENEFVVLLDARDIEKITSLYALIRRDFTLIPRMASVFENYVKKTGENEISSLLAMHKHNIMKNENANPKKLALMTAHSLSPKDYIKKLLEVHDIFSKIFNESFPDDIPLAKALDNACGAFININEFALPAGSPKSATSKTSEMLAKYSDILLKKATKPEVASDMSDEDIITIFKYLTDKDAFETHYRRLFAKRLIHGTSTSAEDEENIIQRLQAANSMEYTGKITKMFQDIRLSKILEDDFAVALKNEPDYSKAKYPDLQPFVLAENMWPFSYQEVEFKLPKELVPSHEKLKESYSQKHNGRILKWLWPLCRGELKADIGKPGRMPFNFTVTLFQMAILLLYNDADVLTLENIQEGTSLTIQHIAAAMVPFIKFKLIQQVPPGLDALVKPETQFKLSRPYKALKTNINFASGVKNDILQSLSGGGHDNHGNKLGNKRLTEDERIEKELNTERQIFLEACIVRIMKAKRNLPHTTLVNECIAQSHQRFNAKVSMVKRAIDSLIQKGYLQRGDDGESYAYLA
Briefly: anti-MYC immunoprecipitation from yeast lysate, western blot. (In general: A western blot detects proteins with antibodies after separation by electrophoresis.)
Procedure: This powder was thawed, spun to remove cellular debris, and cleared by spinning in ultracentrifuge. Protein concentration in the lysate was adjusted to 24 mg/ml in a volume of 1.25 ml lysis buffer+10 mM N-ethyl maleimide, for a final mass of 30 mg protein for each strain. 25 µl of a 50% slurry in lysis buffer of protein-A beads (Pierce) cross-linked with dimethyl suberimidate to the anti-MYC monoclonal antibody 9E10 was added to each lysate, incubated with gentle rocking at 4° C. for several hours, washed several times with lysis buffer, aspirated, resuspended in protein sample buffer, and run on two 10% polyacrylamide gels. One gel was transferred to polyvinylidene fluoride membrane and western blotted with anti-MYC, anti-Cdc34, and anti-Skp1 antibodies (FIG. 12A).

Experiment [2] concerns the target T2, MYC-tagged Cdc53 (Saccharomyces cerevisiae, UniProt Q12018 1-815).
T2 construct: Expressed from the wild type promoter on a CEN plasmid in yeast and immunoprecipitated with 9E10 anti-MYC; also called Cdc53^M; Cdc53^MYC6
T2 sequence: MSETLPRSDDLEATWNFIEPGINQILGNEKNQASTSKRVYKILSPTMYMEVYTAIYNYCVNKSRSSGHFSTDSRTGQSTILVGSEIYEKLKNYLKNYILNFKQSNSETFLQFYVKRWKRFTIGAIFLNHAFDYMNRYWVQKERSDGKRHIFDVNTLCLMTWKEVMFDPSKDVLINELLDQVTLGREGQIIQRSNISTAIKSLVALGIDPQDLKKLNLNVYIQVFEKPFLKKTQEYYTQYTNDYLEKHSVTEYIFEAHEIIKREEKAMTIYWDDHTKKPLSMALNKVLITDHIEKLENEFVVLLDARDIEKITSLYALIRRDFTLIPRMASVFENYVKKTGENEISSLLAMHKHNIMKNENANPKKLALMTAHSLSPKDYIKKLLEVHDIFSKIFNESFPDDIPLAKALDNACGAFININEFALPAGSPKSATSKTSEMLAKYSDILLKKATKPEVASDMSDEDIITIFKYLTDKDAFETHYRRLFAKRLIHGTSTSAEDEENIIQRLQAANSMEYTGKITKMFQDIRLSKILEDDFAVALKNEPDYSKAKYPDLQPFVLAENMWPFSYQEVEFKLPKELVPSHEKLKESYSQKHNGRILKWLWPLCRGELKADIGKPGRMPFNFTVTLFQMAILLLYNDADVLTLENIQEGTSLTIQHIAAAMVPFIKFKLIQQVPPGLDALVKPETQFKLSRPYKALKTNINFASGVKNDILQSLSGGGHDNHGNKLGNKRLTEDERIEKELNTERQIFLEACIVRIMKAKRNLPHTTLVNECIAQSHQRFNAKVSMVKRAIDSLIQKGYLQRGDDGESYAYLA
Briefly: anti-MYC immunoprecipitation from yeast lysate, immunoblot.

Experiment [3] has as its target T3, Cdc53 with deletion of residues 448-748 (MYC-tagged) (Saccharomyces cerevisiae, UniProt Q12018 1-815).
T3 construct: The limits of the text are used here; also called Cdc53 internal deletion
T3 sequence: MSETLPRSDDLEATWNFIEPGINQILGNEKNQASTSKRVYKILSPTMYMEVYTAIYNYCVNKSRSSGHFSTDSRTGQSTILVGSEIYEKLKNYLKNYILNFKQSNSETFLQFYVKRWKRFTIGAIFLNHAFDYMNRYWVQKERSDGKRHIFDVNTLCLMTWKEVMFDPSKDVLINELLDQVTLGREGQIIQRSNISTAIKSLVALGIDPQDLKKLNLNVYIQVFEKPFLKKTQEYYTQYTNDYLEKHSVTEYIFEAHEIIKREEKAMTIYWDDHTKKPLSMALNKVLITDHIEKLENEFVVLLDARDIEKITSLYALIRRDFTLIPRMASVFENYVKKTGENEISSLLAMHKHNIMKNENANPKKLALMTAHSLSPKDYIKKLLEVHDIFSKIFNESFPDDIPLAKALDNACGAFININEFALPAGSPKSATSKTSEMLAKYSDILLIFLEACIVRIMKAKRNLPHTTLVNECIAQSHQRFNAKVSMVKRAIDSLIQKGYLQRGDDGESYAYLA
The description is as above.

In experiment [4] the target is T4, Cdc53^Δ9-280 (MYC-tagged) (Saccharomyces cerevisiae, UniProt Q12018 1-815).
T4 construct: Deletion built with natural and engineered restriction sites; also called CDC53^MΔ9-280; pMT1850
T4 sequence: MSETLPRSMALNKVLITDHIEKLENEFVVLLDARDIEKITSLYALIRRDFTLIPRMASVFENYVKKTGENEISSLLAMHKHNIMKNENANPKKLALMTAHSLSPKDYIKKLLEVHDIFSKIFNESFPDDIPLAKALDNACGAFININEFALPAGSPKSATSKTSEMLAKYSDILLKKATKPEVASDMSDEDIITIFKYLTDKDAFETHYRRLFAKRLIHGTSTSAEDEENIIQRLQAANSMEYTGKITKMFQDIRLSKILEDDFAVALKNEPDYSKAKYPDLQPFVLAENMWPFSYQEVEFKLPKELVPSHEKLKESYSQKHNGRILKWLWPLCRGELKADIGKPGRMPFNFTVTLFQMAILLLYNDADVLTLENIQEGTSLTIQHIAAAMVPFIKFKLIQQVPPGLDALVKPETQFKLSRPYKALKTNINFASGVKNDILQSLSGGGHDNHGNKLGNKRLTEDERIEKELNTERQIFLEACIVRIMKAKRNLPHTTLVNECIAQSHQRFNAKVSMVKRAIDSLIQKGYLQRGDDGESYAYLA
The experiment is described as above.

Experiment [5] concerns the target T5, Skp1 (budding yeast).
T5 construct: Endogenous protein in yeast lysates, detected with anti-Skp1 antibodies; also called endogenous Skp1
The experiment is described as above.

Experiment [6] has as its target B1. Described as above.

T5 sequence (chain, as listed by the source limits assumed): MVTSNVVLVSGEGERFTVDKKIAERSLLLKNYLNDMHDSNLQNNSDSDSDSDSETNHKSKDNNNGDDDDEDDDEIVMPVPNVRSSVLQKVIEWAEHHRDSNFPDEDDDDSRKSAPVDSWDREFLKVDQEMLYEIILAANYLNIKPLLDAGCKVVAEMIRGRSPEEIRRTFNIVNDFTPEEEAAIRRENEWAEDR

Turning to B1, the binding result in experiment [1] was “binds”; in experiment [2], “binds”; in experiment [3], “no binding”; in experiment [4], “binds”.

B2: Cdc53 with IVRIMK (residues 755-760) mutated to polyalanine (MYC-tagged) (other, not shown: small tags and cut ends)
chain: MSETLPRSDDLEATWNFIEPGINQILGNEKNQASTSKRVYKILSPTMYMEVYTAIYNYCVNKSRSSGHFSTDSRTGQSTILVGSEIYEKLKNYLKNYILNFKQSNSETFLQFYVKRWKRFTIGAIFLNHAFDYMNRYWVQKERSDGKRHIFDVNTLCLMTWKEVMFDPSKDVLINELLDQVTLGREGQIIQRSNISTAIKSLVALGIDPQDLKKLNLNVYIQVFEKPFLKKTQEYYTQYTNDYLEKHSVTEYIFEAHEIIKREEKAMTIYWDDHTKKPLSMALNKVLITDHIEKLENEFVVLLDARDIEKITSLYALIRRDFTLIPRMASVFENYVKKTGENEISSLLAMHKHNIMKNENANPKKLALMTAHSLSPKDYIKKLLEVHDIFSKIFNESFPDDIPLAKALDNACGAFININEFALPAGSPKSATSKTSEMLAKYSDILLKKATKPEVASDMSDEDIITIFKYLTDKDAFETHYRRLFAKRLIHGTSTSAEDEENIIQRLQAANSMEYTGKITKMFQDIRLSKILEDDFAVALKNEPDYSKAKYPDLQPFVLAENMWPFSYQEVEFKLPKELVPSHEKLKESYSQKHNGRILKWLWPLCRGELKADIGKPGRMPFNFTVTLFQMAILLLYNDADVLTLENIQEGTSLTIQHIAAAMVPFIKFKLIQQVPPGLDALVKPETQFKLSRPYKALKTNINFASGVKNDILQSLSGGGHDNHGNKLGNKRLTEDERIEKELNTERQIFLEACAAAAAAAKRNLPHTTLVNECIAQSHQRFNAKVSMVKRAIDSLIQKGYLQRGDDGESYAYLA
notes: also called CDC53^MIVRIMK; pMT1859
For the molecule B2, the binding result in experiment [5] and in experiment [6] was “binds” each time.

Source of the values: US6426205 (MOUNT SINAI HOSPITAL, dated 2002).
